Assay results published in PMC3285272 (Cell, 2012).

Tests used:
Assay in all cases: pull-down
[1] = target: T1, γζ-COP lacking the C-terminal appendage domain of γ-COP (γ-COP 1–617) (B. taurus, UniProt P53620 1-617; P35604 1-177)
T1 sequence (looked up) 1: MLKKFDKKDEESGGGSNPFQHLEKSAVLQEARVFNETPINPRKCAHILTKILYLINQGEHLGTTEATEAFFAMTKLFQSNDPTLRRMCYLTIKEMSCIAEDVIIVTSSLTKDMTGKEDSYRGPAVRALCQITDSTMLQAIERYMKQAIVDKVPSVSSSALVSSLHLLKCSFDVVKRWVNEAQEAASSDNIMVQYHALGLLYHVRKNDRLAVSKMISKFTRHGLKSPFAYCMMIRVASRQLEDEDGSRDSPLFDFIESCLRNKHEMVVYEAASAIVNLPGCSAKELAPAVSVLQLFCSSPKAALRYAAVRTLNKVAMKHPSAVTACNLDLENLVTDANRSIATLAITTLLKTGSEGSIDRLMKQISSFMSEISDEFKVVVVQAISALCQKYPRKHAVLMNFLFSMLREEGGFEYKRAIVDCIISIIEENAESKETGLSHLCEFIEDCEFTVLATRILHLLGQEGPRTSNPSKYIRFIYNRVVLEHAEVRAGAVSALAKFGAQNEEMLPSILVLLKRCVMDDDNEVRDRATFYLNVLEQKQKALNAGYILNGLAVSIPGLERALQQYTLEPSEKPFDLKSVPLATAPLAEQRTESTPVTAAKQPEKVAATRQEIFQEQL
T1 sequence (looked up) 2: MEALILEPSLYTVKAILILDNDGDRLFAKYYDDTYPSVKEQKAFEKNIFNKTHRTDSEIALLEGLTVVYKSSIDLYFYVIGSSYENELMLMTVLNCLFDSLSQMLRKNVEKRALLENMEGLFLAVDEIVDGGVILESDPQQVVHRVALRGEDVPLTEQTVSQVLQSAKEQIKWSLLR

[2] = target: T2, γζ-COP core complex (bovine γ-COP 1–355 plus ζ-COP 1–153) (B. taurus, UniProt P53620 1-355; P35604 1-153)
T2 sequence (looked up) 1: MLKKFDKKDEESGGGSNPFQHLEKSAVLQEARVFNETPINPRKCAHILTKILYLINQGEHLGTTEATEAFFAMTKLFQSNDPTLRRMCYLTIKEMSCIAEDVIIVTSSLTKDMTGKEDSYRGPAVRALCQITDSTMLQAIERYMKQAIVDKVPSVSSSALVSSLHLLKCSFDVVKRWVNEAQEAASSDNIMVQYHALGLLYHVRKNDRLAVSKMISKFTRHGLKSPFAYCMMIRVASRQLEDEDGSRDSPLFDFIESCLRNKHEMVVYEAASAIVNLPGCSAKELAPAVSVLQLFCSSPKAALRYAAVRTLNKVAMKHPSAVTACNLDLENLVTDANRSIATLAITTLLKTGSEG
T2 sequence (looked up) 2: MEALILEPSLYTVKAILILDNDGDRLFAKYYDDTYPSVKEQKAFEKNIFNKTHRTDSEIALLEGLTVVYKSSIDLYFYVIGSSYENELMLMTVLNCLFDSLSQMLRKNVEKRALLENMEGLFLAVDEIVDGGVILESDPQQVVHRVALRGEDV

[3] = target: full-length βδ/γζ-COP complex (R. norvegicus | B. taurus, UniProt P23514 1-953; P53619 1-511; P53620 1-874; P35604 1-177)

- binding result [1]: binds
- binding result [2]: binds
- binding result [3]: binds
B1: S. cerevisiae Arf1 (residues 18–181) with a C-terminal GST tag (domain or fragment, UniProt P11076 18-181, looked up)
chain: MRILMVGLDGAGKTTVLYKLKLGEVITTIPTIGFNVETVQYKNISFTVWDVGGQDRIRSLWRHYYRNTEGVIFVVDSNDRSRIGEAREVMQRMLNEDELRNAAWLVFANKQDLPEAMSAAEITEKLGLHSIRNRPWFIQATCATSGEGLYEGLEWLSNSLKNST
